Tests used:
[1] = Enzyme assay: amount of trehalose produced from maltose by PTTS; type: biochemical, Picrophilus torridus
Experimental: (§1) The activity of PTTS was assayed by measuring the amount of trehalose produced from maltose. The standard reaction was performed by adding 1.5 μL purified enzyme into 50 μL reaction solution containing 50 mM sodium phosphate (pH 6.0) and 150 mM maltose and incubating in a 45° C. water bath for 25 min. The assay time was under the linear range of enzyme reaction. The reaction was terminated by heating the mixture in boiling water for 15 min. One unit of enzyme activity was defined as the amount of enzyme that catalyzes the formation of 1 μmol of trehalose per min. Kinetic analysis was performed under conditions of pH 6.0 and 45° C. for 5 min in 50 mM sodium phosphate buffer containing substrate (maltose, trehalose, or maltose plus a constant 10 mM of glucose) at various concentrations. The resulting data were analyzed offline with Origin 6.0 software (Microcal, Northampton, Mass.). All experiments were carried out in duplicate or triplicate.
(§2) The amount of trehalose, glucose, and maltose after each enzymatic reaction was measured using a high performance liquid chromatography (HPLC) (SFD 2100) system equipped with an RI detector (Schambeck S F D, RI 2000) at a flow rate of 0.9 mL/min. A carbohydrate analysis column (HYPERSIL-100 Amino, Thermo Hypersil-Keystone) equilibrated with 75% acetonitrile, 24% Milli-Q water, and 1% formic acid was used. The retention times of glucose, maltose, and trehalose were 8.0, 11.2, and 12.5 min, respectively.

[2] = Effects of substrate concentration and temperature on the maximum yield of trehalose; type: biochemical, Picrophilus torridus
Experimental: FIG. 4 is a graph which illustrates the effects of substrate concentration on the maximum yield of trehalose by Picrophilus torridus trehalose synthase. Purified enzyme was incubated with different concentrations of maltose in 50 mM sodium phosphate buffer (pH 6.0) at 45° C. Samples were collected at various intervals of reaction time and analyzed by HPLC. The symbols which indicated different concentrations of maltose are open square (□) 1 M; solid square (▪), 500 mM; solid triangle (▴), 250 mM; open rhombus (⋄), 150 mM, and open circle (◯), 50 mM.
FIG. 5 is a series of graphs illustrating the effects of temperature on the formation of trehalose (5A) and glucose (5B) from maltose (5C) by Picrophilus torridus trehalose synthase. Reaction mixtures containing purified Picrophilus torridus trehalose synthase, 150 mM maltose and pH 6.0 sodium phosphate buffer were incubated at various temperatures for 72 h. Samples were collected at various intervals and analyzed by HPLC. The symbols which indicated different reaction temperatures are open square (□) denoting temperature of 20° C.; solid square (▪) denoting temperature of 30° C.; solid triangle (▴) denoting temperature of 45° C.; and open triangle (Δ) denoting temperature of 0° C.
as §2
Effects of Substrate Concentration and Temperature on the Maximum Yield of Trehalose. The effects of the substrate concentration on the yield of trehalose by PTTS were examined at pH 6.0, 45° C., and various maltose concentrations. A maximum conversion was reached after 24 hour incubation for each reaction. The final yield of trehalose increased as the substrate concentration increased. […] Therefore, a higher maximum yield was gained at a lower temperature.

[3] = type: biochemical, Picrophilus torridus
Experimental: FIG. 2 is a graph which illustrates the effects of pH on the activity and stability of Picrophilus torridus trehalose synthase. The enzyme activities at various pH levels were examined at the maltose concentration of 150 mM and temperature of 45° C. for 25 min. The pH stability of Picrophilus torridus trehalose synthase enzyme was examined by measuring the residual activity of enzyme at pH 6.0 after pre-incubation in various pH levels at 45° C. for 20 min. The solid square (▪) and circle (●) notations indicate the enzyme activity under 50 mM sodium phosphate buffer (pH 6.0˜8.5) and 50 mM acetate buffer (pH 3.5˜6.0), respectively. The open square (□) and circle (◯) notations represent the pH stability under 50 mM sodium phosphate buffer (pH 6.0˜8.5) and 50 mM acetate buffer (pH 3.5˜6.0), respectively.
FIG. 3 is a graph which illustrates the effects of temperature on the activity and stability of Picrophilus torridus trehalose synthase. The enzyme activities at various temperatures were examined at the maltose concentration of 150 mM and pH 6.0 for 25 min. To examine temperature stability, the residual activity of the enzyme was measured at 45° C. after pre-incubation of the purified enzyme at different temperatures (4° C.˜100° C.) and pH 6.0 for 20 min. The solid circle (●) and open circle (◯) notations denote the enzyme activity and temperature stability, respectively, under various temperatures.
as §1
Effects of pH and Temperature on the Activity and Stability of Recombinant PTTS. The pH dependence of PTTS was studied at 45° C. in 50 mM acetate buffer (pH 3.5-6.0) or 50 mM phosphate buffer (pH 6.0-8.5) using 150 mM maltose as a substrate. […] The effects of temperature on PTTS activity and stability are depicted in FIG. 3. The optimum temperature was 45° C. and the enzyme maintained stability up to 60° C. at pH 6.0 for 20 min.

[4] = Effects of substrate concentration and temperature on the maximum yield of trehalose; type: biochemical, Picrophilus torridus; conditions: 150 mM maltose, pH 6.0, 60° C., three days
[5] = Kinetic analysis of PTTS with maltose or trehalose as substrate; type: biochemical, Picrophilus torridus; conditions: pH 6.0, 45° C., 5 min
Experimental: as §1
Kinetics Analysis. Kinetic parameters of PTTS were investigated at pH 6.0 and 45° C. for 5 min using maltose or trehalose as substrate (FIG. 7). […] This kinetic data is useful for determining the baseline activity of the enzyme and enables one of skill in the art to use this activity as a criterion for the isolation or construction of variants having substantially equivalent enzymatic activity.

[6] = 150 mM maltose, pH 6.0, 20° C., three days
[7] = 150 mM maltose, pH 6.0, 30° C., three days
[8] = 150 mM maltose, pH 6.0, 45° C., three days
[9] = 150 mM maltose, pH 6.0, 60° C., three days

B1: PTTS: recombinant Picrophilus torridus trehalose synthase with C-terminal linker and His(6)-tag (SEQ ID NO: 4), expressed in E. coli (protein, listed as Picrophilus torridus)
chain: MLDNNGLWYRDAVFYEVPVKSFYDSNNDGIGDFNGLTMKLDYLKKLGVDALWLLPFYKSPLKDDGYDISDYYSILPEYGTIDDFKNFIDTAHSMNIRVIADLVLNHVSDQHPWFIESRSSIDNPKRDWFIWSDTPEKFKEARIIFIDTEKSNWTYDPETKQYYFHRFYSSQPDLNYDNPDVRNEVKKVIRYWLDLGLDGFRADAVPYLFKRENTNCENLPETHNFFKEIRKMMDEDYPGTILLAEANQWPTETKAYFGNGDEFHMAFNFPLMPRIFIALARSDYYPIMDIIKQTLPIPDNCDWCIFLRNHDELTLEMVTDSERDIMYREYAKIPKMRLNLGIRRRLAPLADNDINTIELLNALIFSLPGTPIIYYGDEIGMGDNIYLGDRNGVRTPMQWSYDRNAGFSMADSEQLYSPVITNPNYHYESVNVEAELRLSSSLLNWMIKIIHVRKDYKELLGRGSIKFIEQGNKRVLSYIREYENQRMLCLFNLSRNPTYVELNLSDYIGLKPIEAITKAAFPRIKDDRYFITMTPRSFFWFNLIVPERDDSYDLIGEDANSRVDKLAAALEHHHHHH
specific activity ([1]; purified recombinant His-tag PTTS after Ni-column, 1 unit = 1 μmol trehalose per min): 80 units per mg of protein | specific activity toward maltose ([1]; recombinant PTTS, estimated): about 80 units/mg protein | specific activity as share of that of T. aquaticus trehalose synthase ([1]; toward maltose): about 60% | specific activity relative to M. smegmatis trehalose synthase ([1]; toward maltose): about 2.8 fold | specific activity relative to P. stutzeri CJ38 trehalose synthase ([1]; toward maltose): roughly equal | specific activity relative to Pimelobacter trehalose synthase ([1]; toward maltose): about 4.7 fold | glucose content [2, 6]: 3.6% | maltose content [2, 6]: 25.4% | maximum conversion of maltose into trehalose [2, 6]: 71% | glucose content [2, 7]: 4.3% | maltose content [2, 7]: 27.6% | maximum conversion of maltose into trehalose [2, 7]: 68% | glucose content [2, 8]: 7.8% | maltose content [2, 8]: 31.2% | maximum conversion of maltose into trehalose [2, 8]: 61% | glucose content [2, 9]: 19.2% | maltose content [2, 9]: 31.3% | incubation time to reach maximum conversion ([2]; pH 6.0, 45° C., each maltose concentration): 24 h | maximum conversion of maltose into trehalose ([2]; pH 6.0, 45° C., various maltose concentrations (50 mM to 1 M)): around 60% | activity at pH 5.0 ([3]; 45° C., 150 mM maltose): maintained high activity | optimum pH ([3]; 45° C., 150 mM maltose, acetate or phosphate buffer): 6.0 | activity maintained at pH 5.0 ([3]; pH 5.0): 80% | optimum temperature ([3]; pH 6.0, 150 mM maltose): 45 °C | maximum conversion of maltose into trehalose [4]: 50% | enzyme efficiency (kcat/KM) toward maltose relative to trehalose [5]: 2.5 fold | kcat for trehalose relative to maltose [5]: twofold higher

B2: native PTTS: Picrophilus torridus trehalose synthase protein without the linker and hexahistidine tag (SEQ ID NO: 3) (protein, listed as Picrophilus torridus)
chain: MLDNNGLWYRDAVFYEVPVKSFYDSNNDGIGDFNGLTMKLDYLKKLGVDALWLLPFYKSPLKDDGYDISDYYSILPEYGTIDDFKNFIDTAHSMNIRVIADLVLNHVSDQHPWFIESRSSIDNPKRDWFIWSDTPEKFKEARIIFIDTEKSNWTYDPETKQYYFHRFYSSQPDLNYDNPDVRNEVKKVIRYWLDLGLDGFRADAVPYLFKRENTNCENLPETHNFFKEIRKMMDEDYPGTILLAEANQWPTETKAYFGNGDEFHMAFNFPLMPRIFIALARSDYYPIMDIIKQTLPIPDNCDWCIFLRNHDELTLEMVTDSERDIMYREYAKIPKMRLNLGIRRRLAPLADNDINTIELLNALIFSLPGTPIIYYGDEIGMGDNIYLGDRNGVRTPMQWSYDRNAGFSMADSEQLYSPVITNPNYHYESVNVEAELRLSSSLLNWMIKIIHVRKDYKELLGRGSIKFIEQGNKRVLSYIREYENQRMLCLFNLSRNPTYVELNLSDYIGLKPIEAITKAAFPRIKDDRYFITMTPRSFFWFNLIVPERDDSYDLIGED
specific activity relative to the recombinant His-tag fusion PTTS ([1]; PTTS without His-tag): about 1.3 fold
